Positions count from the first letter of the chain named.
What was measured:
Assay in all cases: ELISA, antibody coated, OX40-ECD.His mutant supernatant; relative to silent alanine substitutions;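 note: captured OX40 mutant protein detected with HRP-labelled anti-His antibody, absorbance read-out, scaled to the mean signal of control mutants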
[1] = target: T1, human OX40-ECD.His P48A (human, UniProt P43489 29-214)
T1 construct: extracellular domain; not shown: C-terminal His-tag
T1 sequence (looked up): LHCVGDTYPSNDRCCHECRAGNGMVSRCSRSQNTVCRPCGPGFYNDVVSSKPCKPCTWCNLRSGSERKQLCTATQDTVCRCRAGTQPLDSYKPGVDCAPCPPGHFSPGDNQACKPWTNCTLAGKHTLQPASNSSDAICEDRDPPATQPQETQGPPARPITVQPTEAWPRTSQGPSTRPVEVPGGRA

[2] = target: T2, human OX40-ECD.His Q97A (human, UniProt P43489 29-214)
T2 construct: extracellular domain; not shown: C-terminal His-tag
T2 sequence (looked up): T1 sequence (looked up) with A20P, Q69A

[3] = target: T3, human OX40-ECD.His T100A (human, UniProt P43489 29-214)
T3 construct: extracellular domain; not shown: C-terminal His-tag
T3 sequence (looked up): T1 sequence (looked up) with A20P, T72A

[4] = target: T4, human OX40-ECD.His R55A (human, UniProt P43489 29-214)
T4 construct: extracellular domain; not shown: C-terminal His-tag
T4 sequence (looked up): T1 sequence (looked up) with A20P, R27A

[5] = target: T5, human OX40-ECD.His K120A (human, UniProt P43489 29-214)
T5 construct: extracellular domain; not shown: C-terminal His-tag
T5 sequence (looked up): T1 sequence (looked up) with A20P, K92A

[6] = target: T6, human OX40-ECD.His N50A (human, UniProt P43489 29-214)
T6 construct: extracellular domain; not shown: C-terminal His-tag
T6 sequence (looked up): T1 sequence (looked up) with A20P, N22A

[7] = target: T7, human OX40-ECD.His D137A (human, UniProt P43489 29-214)
T7 construct: extracellular domain; not shown: C-terminal His-tag
T7 sequence (looked up): T1 sequence (looked up) with A20P, D109A

[8] = target: T8, human OX40-ECD.His E45A (human, UniProt P43489 29-214)
T8 construct: extracellular domain; not shown: C-terminal His-tag
T8 sequence (looked up): T1 sequence (looked up) with E17A, A20P

[9] = target: T9, human OX40-ECD.His P127A (human, UniProt P43489 29-214)
T9 construct: extracellular domain; not shown: C-terminal His-tag
T9 sequence (looked up): T1 sequence (looked up) with A20P, P99A

[10] = target: T10, human OX40-ECD.His K82A (human, UniProt P43489 29-214)
T10 construct: extracellular domain; not shown: C-terminal His-tag
T10 sequence (looked up): T1 sequence (looked up) with A20P, K54A

B1: 1.134.9-u1-IgG1L (antibody, V domains shown)
VH: QVQLQESGPGLVKPSGTLSLTCAVSGGSISSYNWWSWVRQPPGKGLEWIGEIYHGGNTNYNPSLKSRVTMSVDNSKNQFSLKLSSVTAADTAVYYCARAPGDWGGSPYFDFWGQGTLVTVSS
VL: SSELTQDPAVSVALGQTVRITCQGDNLRTYYASWYQQKPGQAPILLIYGRNKRPSGIPDRFSGSSSGNTASLTITGAQAEDEAAYYCNSRDSSGNPVVFGGGTKLTVL
notes: fully human IgG1, lambda
Fold Change [1]: 0.981
Fold Change [2]: 0.981
Fold Change [3]: 0.557
Fold Change [4]: 0.976
Fold Change [5]: 0.896
Fold Change [6]: 0.961
Fold Change [7]: 0.851
Fold Change [8]: 1.02
Fold Change [9]: 0.953
Fold Change [10]: 0.894

— patent publication US20210171647A1 (WUXI BIOLOGICS SHANGHAI, published 2021)
